What all share (experiment): ITC
On the technique in general: ITC needs no label: the signal is the heat of the interaction.

Experiment [1] has as its target NapA signal peptide (Escherichia coli) (UniProt P33937). Particulars: cited from earlier work.
Experiment [2] addresses ϕMalE-NapAsp^His (E. coli).
The target in experiment [3] is ϕMalE-NapAsp^His A17Q variant (E. coli).
Experiment [4] concerns the target ϕMalE-NapAsp^His K10Q (E. coli).
Experiment [5] addresses ϕMalE-NapAsp^His M9Q (E. coli).
The target of experiment [6] is ϕMalE-NapAsp^His R6Q (E. coli).

Changes are numbered by the printed parent chain. Names may count otherwise.

As for NapD (from UniProt P0A9I5), in experiment [1], the Kd is 7 nM.

B1: NapD^His (natural protein)
chain: MHTNWQVCSLVVQAKSERISDISTQLNAFPGCEVAVSDAPSGQLIVVVEAEDSETLIQTIESVRNVEGVLAVSLVYHQQEEQGEETP
In experiment [2], B1 showed a Kd, population 1 (two sites) of 3 nM; a Kd, population 2 (two sites) of 143 nM; a N, population 1 (two sites) of 0.35; a N, population 2 (two sites) of 0.64. Further, in experiment [3], the Kd was 1100 nM and the stoichiometry N turned out to be 0.16. In experiment [4], this molecule registered a Kd of 1300 nM and a stoichiometry N of 0.33. In experiment [5], this molecule registered a Kd, population 1 (two sites) of 1 nM; a Kd, population 2 (two sites) of 75 nM; a N, population 1 (two sites) of 0.13; a N, population 2 (two sites) of 0.65. In experiment [6], this molecule registered a Kd of 725 nM and a stoichiometry N of 0.6.

B2: NapD I19F/T59I (NapD^His variant) (natural protein)
chain: B1 chain with I19F, T59I
In experiment [2], B2 returned a Kd of 935 nM and a stoichiometry N of 0.39. In addition, in experiment [3], the Kd, population 1 (two sites) is 22 nM; the Kd, population 2 (two sites) worked out at 261 nM; the N, population 1 (two sites) worked out at 0.25; the N, population 2 (two sites) came out at 0.65.

B3: NapD A14T (NapD^His variant) (natural protein)
chain: B1 chain with A14T
Take B3: in experiment [2], the Kd turned out to be 763 nM and the stoichiometry N came out at 0.7. This molecule showed an equilibrium dissociation constant (Kd) in experiment [3] of 1870 nM.

B4: NapD I19F (NapD^His variant) (natural protein)
chain: B1 chain with I19F
In experiment [2], B4 yielded a Kd of 806 nM and a stoichiometry N of 0.97. In experiment [3], this molecule returned a Kd, population 1 (two sites) of 14 nM; a Kd, population 2 (two sites) of 704 nM; a N, population 1 (two sites) of 0.29; a N, population 2 (two sites) of 0.62.

B5: NapD A14T/A71T (NapD^His variant) (natural protein)
chain: B1 chain with A14T, A71T
In experiment [2], B5 yielded a Kd of 571 nM and a stoichiometry N of 0.91. In experiment [3], this molecule showed a Kd, population 1 (two sites) of 12 nM; a Kd, population 2 (two sites) of 218 nM; a N, population 1 (two sites) of 0.3; a N, population 2 (two sites) of 0.69.

B6: NapD T59I (NapD^His variant) (natural protein)
chain: B1 chain with T59I
With B6, in experiment [2], the Kd is 328 nM and the stoichiometry N turned out to be 0.81. In experiment [3], this molecule returned a Kd of 633 nM and a stoichiometry N of 0.57.

B7: NapD A71T (NapD^His variant) (natural protein)
chain: B1 chain with A71T
In the case of B7, in experiment [2], the Kd amounted to 313 nM and the stoichiometry N was found to be 0.83. In experiment [3], this molecule showed a Kd of 833 nM and a stoichiometry N of 1.11.

As usually defined, the Kd is the constant that tells how readily two partners part at equilibrium. As a reminder, the stoichiometry N is the number of molecules, sites or subunits per partner or assembly.

Source of the values: paper PMC3712460.
